Experiment [1] concerns the target T1, human PD-1 expressed on cells (CHO human PD-1 cells) (human, UniProt Q15116 21-288). The experiment in a line: cell-based or functional assay.
The target in experiment [2] is T1, human PD-1 expressed on cells (CHO …). The experiment in a line: cell-based or functional assay. This is another data set of the same source.
Experiment [3] concerns the target T2, Strep tagged recombinant human PD-1 (human, UniProt Q15116 25-170, limits assumed).
T2 construct: the whole entry is named; also called strep tagged human PD-1; not shown: Strep tag
The experiment in a line: SPR Biacore T200, strep-tagged PD-1 amine-coupled, single cycle kinetics. As for the experimental part: Single cycle kinetics assays were used to study the interaction between human PD-1 with Humabody® on a Biacore T200 instrument (GE Healthcare). Strep tagged recombinant human PD-1 was amine coupled to one flow cell of a CM-5 chip to create a low density surface (14 RU) using standard Biacore reagents. For the reference flow cell, a blank immobilisation was carried out. A five-point, three-fold dilution series of each Humabody® was made with a top concentration of 25 nM. The binding kinetics were followed by flowing the Humabody® over the chip surface in HBS EP+ buffer at a flow rate of 30 μl/min. The contact time for each of the association steps was 180 seconds and the dissociation step was 3300 seconds. The data was fitted to a 1:1 binding model after double reference subtraction using the Biacore T200 Evaluation software.
A general note: In SPR one partner is held on a chip, and binding of the other changes the refractive index at the surface.

Experiment [4] concerns the target human PD-1 on primary human CD4+ T cells (human, UniProt Q15116 21-288). The experiment can be described thus: flow cytometry on PHA-stimulated human CD4+ T cells (live cell gate). The procedure: Binding of monovalent single domain antibodies and multivalent binding agents to T cells was measured using flow cytometry. […] T-cells were stimulated with 2.5 μg/ml PHA for 2-4 days in RPMI media supplemented with 10% FBS, 2 mM Glutamine, 1× Pen/Strep. Cells were transferred into 96 well plates (75000 per well), blocked for 10 mins with PBS/1% BSA, then incubated with serially diluted VH in staining buffer (PBS/1% BSA) for 1 hour at 4° C. Cells were washed with staining buffer by centrifugation then incubated with 10 μg/ml biotinylated Anti His antibody for 40 mins at 4° C. Cells were washed again then stained with Streptavidin Alexa Fluor-488 (10 μg/ml) and 1:5000 diluted Live Dead near IR stain (Molecular Probes cat no. L10119) for 30 mins at 4° C. After further washing cells were fixed and fluorescence measured by flow cytometry.
(Flow cytometry measures light scatter and fluorescence of single cells or particles in a stream.)

Experiment [5] deals with human PD-1 expressed on cells (CHO human PD-1 cells) (human) (UniProt Q15116). The experiment can be described thus: FMAT inhibition assay on CHO human PD-1 cells; blocked ligand: human Fc tagged human PD-L1.
Experiment [6] has as its target T3, recombinant human PD-1 Fc chimera (human, UniProt Q15116 25-167).
T3 construct: Bought protein; also called human PD-1-huFc; huPD-1-Fc; not shown: human Fc
The experiment can be described thus: SPR Biacore T200, PD-1-Fc captured on protein G, single cycle kinetics. The procedure: Single cycle kinetics assays were used to study the interaction between human Fc tagged human PD-1 with Humabody® on a Biacore T200 instrument (GE Healthcare). Protein G was amine coupled to two flow cells of a CM-5 chip. Human Fc tagged recombinant human PD-1 was captured onto one of the flow cells. The other was used as the reference flow cell. A five point, three-fold dilution series of each Humabody® was made with a top concentration within the range of 50 to 150 nM. The binding kinetics were followed by flowing the Humabody® over the chip surface in HBS EP+ buffer at a flow rate of 30 μl/min. The contact time for each of the association steps was 180 seconds and the dissociation step was 3600 seconds. The data was fitted to a 1:1 binding model after double reference subtraction using the Biacore T200 Evaluation software.

Experiment [7] concerns the target T1, human PD-1 expressed on cells (CHO …). The experiment in a line: cell-based or functional assay. This is another data set of the same source.
Experiment [8] shares this target. The experiment can be described thus: FMAT inhibition; 200 pM PD-L2 on CHO human PD-1 cells. The procedure:
(§1) All reagents and serially diluted VH were prepared in FMAT assay buffer. […] Plates were incubated for 2 hours at room temperature then fluorescence measured in the FL2 (502 nm-537 nm) and FL5 (677-800 nm) channels on the Mirrorball plate reader (TTP) following excitation at 488 nm and 640 nm. Data was expressed as a % of the total binding control (i.e. % control) after subtraction of the background signal determined from the non-specific binding control wells.

For experiment [9] the target is unchanged. The experiment in a line: FMAT inhibition; 100 pM PD-L1-Fc on CHO human PD-1 cells. The procedure:
as §1

For experiment [10] the target is unchanged. The experiment in a line: FMAT 1.57 epitope competition assay on CHO human PD-1 cells; competitor: 1.57-Strep tagged protein; 1 day in mouse serum. The procedure:
(§2) For the epitope competition assay reagents were prepared in FMAT assay buffer. […] Plates were incubated for a minimum of 1.5 hours at room temperature then fluorescence measured in the FL2 (502 nm-537 nm) and FL5 (677-800 nm) channels on the Mirrorball plate reader (TTP) following excitation at 488 nm and 640 nm. Data was expressed as a % of the total binding control (i.e. % control) after subtraction of the background signal determined from the non-specific binding control wells.
(§3) Serum stability of VH and multivalent VH constructs was assessed by measurement of their activity following incubation for 0, 1, 4 or 7 days in mouse serum (Sigma M5905).

Experiment [11] shares this target. The experiment can be described thus: FMAT 1.57 epitope competition assay on CHO human PD-1 cells; competitor: 1.57-Strep tagged protein; 0 days in mouse serum. As for the experimental part:
as §2, §3

For orientation: Kd means the free concentration of one partner at which half of the binding sites on the other are occupied at equilibrium, for simple one-to-one binding. For orientation: koff means the rate constant with which the complex falls apart. As a reminder, the kon is the second-order rate constant of association. What is called EC50 (read off the curve) is the concentration needed to bring the measured effect to its halfway point. A higher EC50 (read off the curve) goes with a less potent agent. A word on the IC50: it is the concentration needed to halve the response being measured. A high value points to weaker potency in that assay.

T2 sequence (Q15116 25-170 limits assumed): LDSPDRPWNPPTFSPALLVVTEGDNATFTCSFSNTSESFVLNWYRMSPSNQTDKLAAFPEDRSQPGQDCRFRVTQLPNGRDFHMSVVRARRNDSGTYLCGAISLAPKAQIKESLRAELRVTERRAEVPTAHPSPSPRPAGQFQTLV
T1 sequence (Q15116 21-288): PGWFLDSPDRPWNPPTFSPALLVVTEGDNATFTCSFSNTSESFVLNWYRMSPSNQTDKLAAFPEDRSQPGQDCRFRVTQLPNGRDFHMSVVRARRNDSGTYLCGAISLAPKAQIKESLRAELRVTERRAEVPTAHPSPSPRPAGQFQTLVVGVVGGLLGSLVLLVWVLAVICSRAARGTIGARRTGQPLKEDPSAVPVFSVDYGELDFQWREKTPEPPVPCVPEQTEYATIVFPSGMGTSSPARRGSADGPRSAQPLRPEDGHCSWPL
T3 sequence (Q15116 25-167 limits assumed, change not shown): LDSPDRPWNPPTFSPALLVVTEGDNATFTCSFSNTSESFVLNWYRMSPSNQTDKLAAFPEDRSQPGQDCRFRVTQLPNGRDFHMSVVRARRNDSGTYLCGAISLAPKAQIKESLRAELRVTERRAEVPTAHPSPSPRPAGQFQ
human PD-1 on primary human CD4+ T cells, sequence (Q15116 21-288): as the sequence (Q15116 21-288) above
human PD-1 expressed on cells (CHO human PD-1 cells) (human), sequence (Q15116 21-288): as above

B1: 1.57-6GS-1.57 (other)
chain: QVQLVESGGGLVKPGGSLRLSCAASGFTFSDNSMTWMRQAPGKGLEWVSYISSGGGVIFYADSVKGRFTISRDNAKNSLYLQMNSLRADDTAVYYCAREAPLRLGESPHDAFDISGQGTMVTVSSGGGGSGGGGSGGGGSGGGGSGGGGSGGGGSQVQLVESGGGLVKPGGSLRLSCAASGFTFSDNSMTWMRQAPGKGLEWVSYISSGGGVIFYADSVKGRFTISRDNAKNSLYLQMNSLRADDTAVYYCAREAPLRLGESPHDAFDISGQGTMVTVSS
notes: bivalent construct of two VH domains in one chain
In the case of B1, the “EC50 (M), reporter assay” value in [1] came to 8.4e-10 M. Moreover, in experiment [2], the “EC50 (M), human PD-1 reporter gene assay” value was 8.4e-10 M. In [3], the Kd was 0.0171 nM, the koff is 1.32e-05 s⁻¹ and the on-rate constant (kon) turned out to be 773000 M⁻¹ s⁻¹. In addition, in experiment [4], the 50% effective concentration (EC50 (read off the curve)) was ~0.2 nM.

B2: 1.57-1.57 (protein, part only; not given: Linker of unstated length, part only)
VH-linker-VH, part: QVQLVESGGGLVKPGGSLRLSCAASGFTFSDNSMTWMRQAPGKGLEWVSYISSGGGVIFYADSVKGRFTISRDNAKNSLYLQMNSLRADDTAVYYCAREAPLRLGESPHDAFDISGQGTMVTVSSQVQLVESGGGLVKPGGSLRLSCAASGFTFSDNSMTWMRQAPGKGLEWVSYISSGGGVIFYADSVKGRFTISRDNAKNSLYLQMNSLRADDTAVYYCAREAPLRLGESPHDAFDISGQGTMVTVSS
B2 gave an IC50 (read off the curve) in experiment [5] of 0.9 nM.

B3: 1.57-9GS-1.57 (other)
chain: QVQLVESGGGLVKPGGSLRLSCAASGFTFSDNSMTWMRQAPGKGLEWVSYISSGGGVIFYADSVKGRFTISRDNAKNSLYLQMNSLRADDTAVYYCAREAPLRLGESPHDAFDISGQGTMVTVSSGGGGSGGGGSGGGGSGGGGSGGGGSGGGGSGGGGSGGGGSGGGGSQVQLVESGGGLVKPGGSLRLSCAASGFTFSDNSMTWMRQAPGKGLEWVSYISSGGGVIFYADSVKGRFTISRDNAKNSLYLQMNSLRADDTAVYYCAREAPLRLGESPHDAFDISGQGTMVTVSS
notes: as for B1
As to B3, the “EC50 (M), reporter assay” value in experiment [1] stood at 1e-09 M. Moreover, in experiment [2], the “EC50 (M), human PD-1 reporter gene assay” value turned out to be 1e-09 M. Moreover, in experiment [6], the “dissociation rate constant (koff)” value was 8.4e-05 s⁻¹, the off-rate constant (koff) turned out to be 1.14e-07 s⁻¹ and the kon was 1.36e+06 M⁻¹ s⁻¹. Further, in [3], the dissociation constant (Kd) was determined as 0.0222 nM, the koff worked out at 1.4e-05 s⁻¹ and the kon was found to be 630000 M⁻¹ s⁻¹.

B4: Humabody® 1.64 (VHH)
VHH: EVQLVESGGGLVKPGGSLRLSCAASGFTFSDSSMTWMRQAPGKGLEWVSYISSGGGVKFYADSVKGRFTISRDNAKNSLYLQMNSLRADDTAVYYCAREAPLRLGESPHDAFDISGQGTMVTVSS
notes: human VH single domain antibody
B4: the “Reporter Assay EC50” value in [7] came out at 25 nM. For the same molecule, the IC50 was found to be 9 nM in [8] and 5.8 nM in experiment [9]. The “IC50 (read off the curve)” value in experiment [10] is ~0.8 nM; in experiment [11], ~0.9 nM.

Source of the values: patent publication US20200239573A1 (CRESCENDO BIOLOGICS, published 2020).
